Measurements as given in US20060257938A1, “Method of screening for drugs that block ligand binding to a lipid binding protein” (priority 2005, published 2006).
Where a chain is given by its changes, count along the chain named. Where “and” joins values, the source holds several entries; their conditions need not be identical. Equal values may be shown once.

B1: 82M1, 72A (protein, listed as Rattus norvegicus)
chain: AFDGTWKVDRNENYEKFMEKMGINVVKRKLGAHDNLKLTITQEGNKFTVKESSNFRNIDVVFELGVDFAYSAADGTELTGTMTMEGNKLVGKFKRVDNGKELIAVREISGNELIQTYTYEGVEAKRIFKKE
modifications: PEPTIDE (1)...(131) wild-type rat intestinal fatty acid binding protein
B2: 91A, 72A (protein, listed as Rattus norvegicus)
chain: B1 chain with M82W, G91A
modifications: PEPTIDE (1)...(131) wild-type rat intestinal fatty acid binding protein
B3: 82Y2, 72A (protein, listed as Rattus norvegicus)
chain: B1 chain with M82Y
modifications: PEPTIDE (1)...(131) wild-type rat intestinal fatty acid binding protein
B4: 93M, 72A (protein, listed as Rattus norvegicus)
chain: B1 chain with M82W, F93M
modifications: PEPTIDE (1)...(131) wild-type rat intestinal fatty acid binding protein
B5: 82V1, 72A (protein, listed as Rattus norvegicus)
chain: B1 chain with M82V
modifications: PEPTIDE (1)...(131) wild-type rat intestinal fatty acid binding protein
B6: 93L, 72A (protein, listed as Rattus norvegicus)
chain: B1 chain with M82W, F93L
modifications: PEPTIDE (1)...(131) wild-type rat intestinal fatty acid binding protein
B7: 106Q, 72A (protein, listed as Rattus norvegicus)
chain: B1 chain with M82W, R106Q
modifications: PEPTIDE (1)...(131) wild-type rat intestinal fatty acid binding protein
B8: 104T1, 72A (protein, listed as Rattus norvegicus)
chain: B1 chain with M82W, A104T
modifications: PEPTIDE (1)...(131) wild-type rat intestinal fatty acid binding protein
B9: 104R, 72A (protein, listed as Rattus norvegicus)
chain: B1 chain with M82W, A104R
modifications: PEPTIDE (1)...(131) wild-type rat intestinal fatty acid binding protein
B10: 104V1, 72A (protein, listed as Rattus norvegicus)
chain: B1 chain with M82W, A104V
modifications: PEPTIDE (1)...(131) wild-type rat intestinal fatty acid binding protein
B11: 104L1, 72A (protein, listed as Rattus norvegicus)
chain: B1 chain with M82W, A104L
modifications: PEPTIDE (1)...(131) wild-type rat intestinal fatty acid binding protein
B12: 104R1, 72A (protein, listed as Rattus norvegicus)
chain: B1 chain with M82W, A104R
modifications: PEPTIDE (1)...(131) wild-type rat intestinal fatty acid binding protein
B13: 104N1, 72A (protein, listed as Rattus norvegicus)
chain: B1 chain with M82W, A104N
modifications: PEPTIDE (1)...(131) wild-type rat intestinal fatty acid binding protein
B14: 106H2, 72A (protein, listed as Rattus norvegicus)
chain: B1 chain with M82W, R106H
modifications: PEPTIDE (1)...(131) wild-type rat intestinal fatty acid binding protein
B15: 104S2, 72A (protein, listed as Rattus norvegicus)
chain: B1 chain with M82W, A104S
modifications: PEPTIDE (1)...(131) wild-type rat intestinal fatty acid binding protein
B16: 104Y1, 72A (protein, listed as Rattus norvegicus)
chain: B1 chain with M82W, A104Y
modifications: PEPTIDE (1)...(131) wild-type rat intestinal fatty acid binding protein
B17: 106I3, 72A (protein, listed as Rattus norvegicus)
chain: B1 chain with M82W, R106I
modifications: PEPTIDE (1)...(131) wild-type rat intestinal fatty acid binding protein
B18: 106N1, 72A (protein, listed as Rattus norvegicus)
chain: B1 chain with M82W, R106N
modifications: PEPTIDE (1)...(131) wild-type rat intestinal fatty acid binding protein
B19: 106F1, 72A (protein, listed as Rattus norvegicus)
chain: B1 chain with M82W, R106F
modifications: PEPTIDE (1)...(131) wild-type rat intestinal fatty acid binding protein
B20: 106D3, 72A (protein, listed as Rattus norvegicus)
chain: B1 chain with M82W, R106D
modifications: PEPTIDE (1)...(131) wild-type rat intestinal fatty acid binding protein
B21: 106L3, 72A (protein, listed as Rattus norvegicus)
chain: B1 chain with M82W, R106L
modifications: PEPTIDE (1)...(131) wild-type rat intestinal fatty acid binding protein
B22: 106C2, 72A (protein, listed as Rattus norvegicus)
chain: B1 chain with M82W, R106C
modifications: PEPTIDE (1)...(131) wild-type rat intestinal fatty acid binding protein
B23: 106A1, 72A (protein, listed as Rattus norvegicus)
chain: B1 chain with M82W, R106A
modifications: PEPTIDE (1)...(131) wild-type rat intestinal fatty acid binding protein

Assay: Probe fluorescence ratio response to arachidonic acid relative to ADIFAB2
Format: binding
Conditions: Arachidonic acid; response relative to ADIFAB2
Outline: (§1)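 Fluorescently labeled rat intestinal FABP variants were read at two emission wavelengths, near the unbound maximum (about 420 to 480 nm) and the FFA-bound maximum (about 495 to 580 nm). R = Fλ1/Fλ2 after subtracting probe-free intensity; ΔR = R+agent − R0, normalized to ADIFAB2 (rI-FABP-L72A).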

Point of comparison: B2, “DR/DR AA” value 0.86. Against it:
- B1 — higher, 0.97
- B3 — lower, 0.65
- B4 — higher, 0.93
- B5 — the same, 0.86
- B6 — lower, 0.36

Same assay, conditions: arachidonic acid; response relative to ADIFAB2

Point of comparison: B22, “DR/DR AA” value 0.17. Against it:
- B7 — higher, 0.37
- B8 — higher, 1.01
- B10 — higher, 0.63
- B11 — higher, 0.38
- B12 — higher, 1.14
- B13 — higher, 1.14
- B14 — higher, 0.75
- B15 — higher, 1.64
- B16 — higher, 0.36
- B17 — higher, 0.59
- B18 — higher, 0.38
- B19 — higher, 0.75
- B20 — higher, 0.66
- B21 — higher, 0.84
- B23 — higher, 0.39
- B6 — higher, 0.680

In the case of B9, the “DR/DR AA” value is reported as 1.18 and 1.075.

Assay: Probe fluorescence ratio response to linolenic acid relative to ADIFAB2
Format: binding
Conditions: response relative to ADIFAB2
Outline: as §1

Point of comparison: B8, “DR/DR LNA” value 1.07. Against it:
- B1 — lower, 0.75
- B7 — lower, 0.38
- B2 — lower, 0.91
- B3 — higher, 1.57
- B4 — higher, 1.19
- B10 — lower, 0.73
- B11 — lower, 0.42
- B12 — higher, 1.13
- B5 — lower, 0.76
- B13 — lower, 1.06
- B14 — lower, 0.73
- B15 — higher, 1.54
- B16 — lower, 0.28
- B17 — lower, 0.71
- B18 — lower, 0.44
- B19 — lower, 0.71
- B20 — lower, 0.77
- B21 — lower, 0.84
- B22 — lower, 0.22
- B23 — lower, 0.52

For B9, the “DR/DR LNA” value was 0.96 and 0.904.
For B6, the “DR/DR LNA” value was 0.81 and 0.680.

Assay: Probe fluorescence ratio response to linoleic acid relative to ADIFAB2
Format: binding
Conditions: response relative to ADIFAB2
Outline: as §1

Point of comparison: B23, “DR/DR LA” value 0.51. Against it:
- B1 — higher, 0.94
- B7 — lower, 0.36
- B2 — higher, 0.83
- B8 — higher, 1.16
- B3 — higher, 1.53
- B4 — higher, 1.28
- B10 — higher, 0.73
- B11 — lower, 0.39
- B12 — higher, 1.22
- B5 — higher, 0.74
- B13 — higher, 0.67
- B14 — higher, 0.78
- B15 — higher, 1.71
- B16 — lower, 0.26
- B17 — higher, 0.68
- B18 — lower, 0.45
- B19 — higher, 0.78
- B20 — higher, 0.80
- B21 — higher, 0.87
- B22 — lower, 0.20

With B9 the “DR/DR LA” value was 0.93 and 0.962.
For B6, the “DR/DR LA” value was 1.03 and 0.670.

Assay: Probe fluorescence ratio response to oleic acid relative to ADIFAB2
Format: binding
Conditions: response relative to ADIFAB2
Outline: as §1

Point of comparison: B8, “DR/DR OA” value 1.10. Against it:
- B1 — lower, 0.92
- B7 — lower, 0.39
- B2 — lower, 0.85
- B3 — higher, 1.53
- B4 — higher, 1.24
- B10 — lower, 0.76
- B11 — lower, 0.48
- B12 — higher, 1.20
- B5 — lower, 0.65
- B13 — lower, 0.71
- B14 — lower, 0.82
- B15 — higher, 1.66
- B16 — lower, 0.24
- B17 — lower, 0.72
- B18 — lower, 0.50
- B19 — lower, 0.78
- B20 — lower, 0.64
- B21 — lower, 0.87
- B22 — lower, 0.22
- B23 — lower, 0.60

With B9 the “DR/DR OA” value was 0.88 and 0.957.
In the case of B6, the “DR/DR OA” value is reported as 1.05 and 0.770.

Assay: Probe fluorescence ratio response to palmitic acid relative to ADIFAB2
Format: binding
Conditions: response relative to ADIFAB2
Outline: as §1

Point of comparison: B16, “DR/DR PA” value 0.14. Against it:
- B1 — higher, 0.54
- B7 — higher, 0.18
- B2 — higher, 0.80
- B8 — higher, 0.99
- B3 — higher, 0.88
- B4 — higher, 0.75
- B10 — higher, 0.63
- B11 — higher, 0.31
- B12 — higher, 1.00
- B5 — higher, 0.48
- B13 — higher, 0.52
- B14 — higher, 0.33
- B15 — higher, 1.57
- B17 — higher, 0.29
- B18 — higher, 0.15
- B19 — higher, 0.38
- B20 — higher, 0.26
- B21 — higher, 0.43
- B22 — lower, 0.09
- B23 — higher, 0.16

With B9 the “DR/DR PA” value was 0.52 and 0.791.
For B6, the “DR/DR PA” value was 0.62 and 0.560.
